Source: patent US11026994B2, “Syndecan-2 compositions and methods of use” (ORBSEN THERAPEUTICS LIMITED, priority 2013, dated 2021)
“Also recorded” adds a separate entry of the source.

Legend:
SDC2 RNA = SDC2 RNA levels in treated cell populations; assay type: cell-based, human
Description: HDAC inhibitors and sirtuins may be used to increase SDC2 expression. […] The sirtuin family of HDACs, including SIRT1 and SIRT2, may be used to increase SDC2 expression. The sirtuins are NAD-dependant HDACs and are reported to deacetylate p53 protein—acetylation of p53 is reported to be important for its transactivation/transcription activity. Thus sirtuins are key regulators of p53 activity. Examples of sirtuins include nicotinamide, sirtinol, EX-527 and tenovins. […] DMSO is also reported to contain HDAC inhibitor (p53 activation) capacity.
DMOG is a hypoxia mimetic, and other hypoxia mimetics for use in the invention include cobalt chloride, EDHB and desferrioxamine. Hypoxia is reported to stimulate p53 (via ATR/CHK1 kinases).
We tested various HDAC inhibitors for their effect on SDC2 expression on human cell populations initially isolated on the basis of SDC2 expression and maintained subsequently in culture.

SDC2 secretion = SDC2 secretion after environmental toxin BPDE; assay type: cell-based, human; conditions: 600 nM BPDE
[1] = system: SDC2 shedding from human MSCs; assay: SDC2 ELISA of supernatants of Nutlin-3a treated MSCs; assay type: cell-based; conditions: 24 h
Method: MSCs were plated at a density of 10^5 cells per well of a 6-well plate (Nunc) in complete media (α-MEM, 10% FBS) and left to adhere overnight. Medium was then exchanged for serum-free containing Nutlin-3a or DMSO as a carrier control. 24 h post-induction the cells were harvested for both RNA and protein and the serum-free supernatant was collected for ELISA.
The levels of human Syndecan-2 was measured in supernatants collected from hMSCs using commercially available ELISA assays (CUSABIO). The assay was conducted as per the manufacturer's instructions. Calibration curves were prepared using purified standards for SDC2. Curve fitting was accomplished by sigmoidal logisitic regression following manufacturer's instructions.
24 h post-treatment with Nutlin-3a (5, 10, 20 μM) or DMSO carrier control (5, 20 μM), the supernatant from MSCs was collected, centrifuged for 5 min at 1500 rpm and subjected to SDC2 ELISA including unconditioned serum-free media as an additional control.
MSCs treated with either Nutlin-3a or DMSO as a carrier control for 24 h in serum-free media. The serum-free supernatants were collected and a commercially available SDC2 ELISA kit was used to detect shed SDC2 present in the supernatants.

HCT116 = assay: Cancer cell migration toward conditioned medium (xCELLigence RTCA); assay type: cell-based; design: key: ↑: increased migration compared to conditioned media; ↓: decreased cell migration compared to conditioned media; —: no changed compared to conditioned media
Description: (§1) Cell migration is a critical parameter for in vitro cell culture-related studies. It is necessary to monitor the dynamic changes of cell populations under different conditions. Using a real time cell analyser (RTCA, xCELLigence, Roche) which is an impedance-based device we can monitor the following properties in real time: proliferation, migration and cell adherence. Such properties are involved in cancer evolution. We used this method to establish the migratory capacity of cancer cells toward conditioned medium. The model is accepted as predictive of efficacy in cancer therapy—reduced migration in the model indicates anti-cancer properties.
(§2) In our investigations, cell migration was determined using 16-well CIM plates read in real-time using the aforementioned xCELLigence device. For these studies a variety of cancer cell lines were used from breast cancer (MDA-MB-231, MDA-MB-486, MCF-10A), prostate cancer (DU145), pancreas cancer (SU-86-86) and colon carcinoma (HCT116).

Du145 = assay: as above; assay type: cell-based; conditions: Recombinant SDC2 500 ng/ml
Description: as §1, §2

SU-86-86 = assay: as above; assay type: cell-based
Description: as §1, §2

MDA-MB-231 = assay: as above; assay type: cell-based; conditions: one symbol per experiment
Description: as §1, §2

[2] = system: NFκB activation by TNFα and IL1β; assay: κB luciferase assay in A549 cells pretreated with SDC2 recombinant protein; assay type: cell-based; conditions: 10 ng/mL TNF-α/IL-1β, 24 hours
Method: A549 cells stably transduced with κB luciferase plasmid were pretreated for 1 hour with SDC2 recombinant protein. 10 ng/mL TNF-α/IL-1β was added to the media and luciferase assay performed after 24 hours. The results are shown in FIG. 5. ***=p<0.0001 with respect to 0 ng/mL S2
A549 cells stably transduced with KB luciferase plasmid and treated for 24 hours with recombinant SDC2. In the top panel: cytokines were added to the media for 24 hours and luciferase assay performed. In the bottom panel: media was replaced before addition of cytokines for 24 hours. *=p<0.01 with respect to 0 ng/mL S2; ***=p<0.0001 with respect to 0 ng/mL S2; +++=p<0.0001 with respect to 100 ng/mL S2.

[3] = at 24 hrs, human cell populations isolated on SDC2 expression
[4] = other series of tests, time not given

In the case of 2-pyrrolidinone-n-butyric acid [PBA], the “SDC2 RNA levels” value (SDC2 RNA; [3]) is reported as “increased SDC2 RNA levels”.

With `OC1c2cc3ccc4cccc5ccc(c2C2OC2C1O)c3c45` (stereo not drawn) [BPDE, benzo[a]pyrene-7,8-diol-9,10-epoxide] the “increase of SDC2 secretion” value (SDC2 secretion) was “approximately 3 fold”.

In the case of `COC(=O)CNC(=O)C(=O)OC` [DMOG, Dimethyloxaloylglycine], the “SDC2 RNA levels” value (SDC2 RNA; [4]) is reported as “very robust increase in SDC2 RNA”.

`C[S+](C)[O-]` [DMSO] was tested, and the “SDC2 RNA levels” value (SDC2 RNA; [4]) was “increased SDC2 RNA levels”.

For `COc1ccc(C2=N[C@@H](c3ccc(Cl)cc3)[C@@H](c3ccc(Cl)cc3)N2C(=O)N2CCNC(=O)C2)c(OC(C)C)c1` [Nutlin-3a], the SDC2 shedding ([1]; 5, 10, 20 μM, compared to DMSO control) was “dose-dependent increase in SDC2 shedding” and the “amount of shed SDC2” value ([1]; Nutlin-3a 20 μM, serum-free, average of three MSC donors) was ~1000 pg/mL.

With `O=C1CCc2c(ccc3ccccc23)O1` [Splitomicin] the “SDC2 RNA levels” value (SDC2 RNA; [3]) was “increased SDC2 RNA levels; also recorded: greatest stimulation”.

For `CCCC(CCC)C(=O)O` [Valproic Acid], the “SDC2 RNA levels” value (SDC2 RNA; [3]) was “increased SDC2 RNA levels”.

B1: Recombinant SDC2: recombinant Syndecan-2 (SDC2) protein (protein, UniProt P34741 19-201, looked up)
Syndecan-2: ESRAELTSDKDMYLDNSSIEEASGVYPIDDDDYASASGSGADEDVESPELTTSRPLPKILLTSAAPKVETTTLNIQNKIPAQTKSPEETDKEKVHLSDSERKMDPAEEDTNVYTEKHSDSLFKRTEVLAAVIAGGVIGFLFAIFLILLLVYRMRKKDEGSYDLGERKPSSAAYQKAPTKEFYA
B1 was tested, and the “Cancer Cell Migration” value (HCT116; Recombinant SDC2 100 ng/ml) was “↓”, the “Cancer Cell Migration” value (HCT116; Recombinant SDC2 500 ng/ml) was “↓” and the “Cancer Cell Migration” value (HCT116; Recombinant SDC2 1000 ng/ml) was “↓”. The “Cancer Cell Migration” value (Du145) was “↓—”, the “Cancer Cell Migration” value (SU-86-86; Recombinant SDC2 100 ng/ml) was “↓↑” and the “Cancer Cell Migration” value (SU-86-86; Recombinant SDC2 500 ng/ml) was “↓↓”. The “Cancer Cell Migration” value (SU-86-86; Recombinant SDC2 1000 ng/ml) was “↓↑”, the “Cancer Cell Migration” value (MDA-MB-231; Recombinant SDC2 100 ng/ml) was “↓↓” and the “Cancer Cell Migration” value (MDA-MB-231; Recombinant SDC2 500 ng/ml) was “↓↓↓↓↓—”. For the same molecule, the “NFκB activation by TNFα and IL1β” value [2] was “suppressed NFκB activation”.
